From the DeepSol protein solubility set come the findings set out here.

The series can be described thus: soluble on expression in E. coli; label from the status in PepcDB or PDB records.
For the sequence “MNEDLTNSTEYKRYGHDYAKYPRRIAEELQHYGGNSFANFFRDEGVLYKEILCDACDHLKVNYNEESATSLIEQNMLSKLLKDSLEKMSRREIKELCNELGMTNIDKVIGENKQVLIASTLTLFKAGGSHSYALAVSVADAMVRQTLGHVMWWVK”, the “soluble on expression in E. coli” value is “not soluble”.
Turning to “MSLHDLLLRNVRPMAGEACDIMIRNGKITGFGKFDAEPGLPVEDGKGAIAVPGLIDAHTHLDKTTWGMPWHVNNRAAILRERIDFERENRVQIGIDPHRQSMRHAIGLAANGGTHIRSHVDIDPTHGLKLVEGIWETREKLDGIIDIEVVAFPQSGVMVMPGTVELLDEALKQGCEVLGGIDPCGIDRDPKGQLDILFQLATKHGVPIDIHLHEAADLGAFTMELIFERIRANGMQGNVAISHAFALGMNDYLRVGRLIDEIARLDVAILTTGAPSASVPSIMRLKEAGVRVGGGCDGIRDTWGPWGQPDMLDRAKIIGMKNGLRSDVELAHVLHVVSRGGADVMGIEDYGMEIGCAADFTLLTGETLAHAVVDITPRPLVVKGGRVTARNGKAIVEAPEGHHHHHH”, the “soluble on expression in E. coli” value is recorded as “not soluble”.
For “MMAEFETVNDVKQLNGLALAYIGDAVYEVYVRRHLLAGGSVRPHELHRRAVRYVSARAQARVILALLDEGVLTEEEKDIVRRGRNAKSGTIPKNTDVQTYRHSTAFEALIGYHFLVNNEKRVDELIGRSFAIIEREERALE”, the “soluble on expression in E. coli” value was “not soluble”.
For “DPFSNLTELANALKEKYQLKNVTVAFSQTNDYSEISKQISQSAAEYLEEIIHDDDILGVSWGTTMYKIAQKLSPQKAEIKVVQLKGGVSHSDVNTYAAETLALFGAAYDTAPVSLPLPVVLDNPLAKQMVEADRHIKNIIELGKKANIAIFTVGTVREEALLFRLGYFSDEEKIRLKEKAVGDICSRFFTINGEIADEKMNERTIGIDLQDLKQKETAILVAGGERKIKAIHGALRGGYANHFITDQYTAKQLLEQNFS” the value was “not soluble”; for “MGSDKIHHHHHHMLLLEVKNVSKSYGDTEVLKNVSFELNEGDVMGVLGRSGAGKSVLLHMLRGMEGYEPTSGQIIYHVAYCPHCENVEAPSQVGKKCECETEYVAKSVDFWNNNEITYALKKKIAIMLQRTFALYGEKTVAENIMEALTAAGYEGKDATEWALNLIKMVKLEHRVAHISRDLSGGEKQRVVLARQIAKNPVIFLADEPTGTLDPKTAKFVHNALTEAVIKHNIAMVITSHWPEVIEELCQKAIWLDKGEMRLVGESKHVVEEFMKTVTSMKEFEKVEVKDELLKLENVEKRYVSVDRGIVKAVDGIDVSINEKEIFGLVGVSGAGKTTLSKIIAAVIPPSKGNYEFRLADEWVDMTKVGPLYRGRAKRYIGMLFQEYSLYPHRTILYNLTESIGLEMPGEFAKMKAEHTLVSVGFTEEEAENMLEKHPSELSVGEKHRVALAQVLIREPHLILLDEPTGTMDPITRNQVAESIQKSRSELDQTYVIVSHDMDFVLNVCDRAALVRGGKIIKTGKPDEIVKILSEEEKDEMIGH”, “not soluble”.
As for “LYLAGIGQYAALLEAGFARARSAEETVRLLVTSYIDWVVANPDWARFILHSRGRVEAGELGERLRADNQAHFARIHAALAGYRAEGLFREMPDDCFASVVIGPAHDLARQWLAGRTRVALADCRELLAQVAWDSVRAA”, the entry is “soluble”; as for “MGSSHHHHHHSSGLEVLFQGPLHMRTQGIKPRIREILSKELPEELVKLLPKRWVRIGDVLLLPLRPELEPYKHRIAEVYAEVLGVKTVLRKGHIHGETRKPDYELLYGSDTVTVHVENGIKYKLDVAKIMFSPANVKERVRMAKVAKPDELVVDMFAGIGHLSLPIAVYGKAKVIAIEKDPYTFKFLVENIHLNKVEDRMSAYNMDNRDFPGENIADRILMGYVVRTHEFIPKALSIAKDGAIIHYHNTVPEKLMPREPFETFKRITKEYGYDVEKLNELKIKRYAPGVWHVVLDLRVFKS”, “soluble”.
As for “MGSDKIHHHHHHMRNYQIPNLFNLGDLETKKVLKAANQAHQALGELKGVVQTVPNQNILLGTLPLQEAKESSEIENIITTQDDLYQSNVATQQFTTIAAKEVHHYAQAVSFGFSEVRKTELITLNLIKQIQAKLEGNNAGFRKQIGTGLVNQRTGQVVYMPPQQPEMIEHYMSVLERFINDSEQIDYDPLVKMAIVHHQFESIHPFYDGNGRTGRIINILYLIQQNLLDTPILYLSRYINRNKDQYYYLLQFVRDHNDWEEWLIFMLNGIAETAKQTVDLINQIKKLMQEHKLLIRNQLPNIYSHELINNLYKYPYTKIDFIAEDCQVHRNTAGKRLEQLVDLGILKKVKIGKENFYINMELYYLLTK”, the “soluble on expression in E. coli” value is given as “not soluble”.
For “SPKKAKPTGSGKEEGPAPCKQMKLEAAGGPSALNFDSPSSLFESLISPIKTETFFKEFWEQKPLLIQRDDPALATYYGSLFKLTDLKSLCSRGMYYGRDVNVCRCVNGKKKVLNKDGKAHFLQLRKDFDQKRATIQFHQPQRFKDELWRIQEKLECYFGSLVGSNVYITPAGSQGLPPHYDDVEVFILQLEGEKHWRLYHPTVPLAREYSVEAEERIGRPVHEFMLKPGDLLYFPRGTIHQADTPAGLAHSTHVTISTYQNNSWGDFLLDTISGLVFDTAKEDVELRTGIPRQLLLQVESTTVATRRLSGFLRTLADRLEGTKELLSSDMKKDFIMHRLPPYSAGDGAELSTPGGKLPRLDSVVRLQFKDHIVLTVLPDQDQSDETQEKMVYIYHSLKNSRETHMMGNEEETEFHGLRFPLSHLDALKQIWNSPAISVKDLKLTTDEEKESLVLSLWTECLIQVV”, the “soluble on expression in E. coli” value was “soluble”.
Turning to “IGDFHYGIGASMSYLNTEVVNVNQAYQEYDYLYTKGNRIGQMYGLEAIGFFNSQQEINNSPQQTFSDVAPGDVKYKDQNGDNRIDEKDIVKMFGSSVPRFYFGFNLNFSYKRLELSADFQGMTGVTVSLLNSPLYSPLVSNGNISNTFLNEEISWTPENKTNATMPRLTTQENLNNYRASSLWYRDGSFLKLRNLLVAYTFPKSQTRFADLKVFVQGTNLFSLDNIHFADPEQLGIAYPSTRSYWAGIKLNF”, the “soluble on expression in E. coli” value is recorded as “not soluble”.
As for “MARRRRAEVRQLQPDLVYGDVLVTAFINKIMRDGKKNLAARIFYDACKIIQEKTGQEPLKVFKQAVENVKPRMEVRSRRVGGANYQVPMEVSPRRQQSLALRWLVQAANQRPERRAAVRIAHELMDAAEGKGGAVKKKEDVERMAEANRAYAHYRW”, the entry is “soluble”; as for “MGSDKIHHHHHHMKLISVKRIWEQGAHNAFTDLIRFQGALFCVFREGTAHVSPDGALRILRSADLGDTWQSVALIRSDEADLRDGKLIEYQGELLLLGGGTLHDKSGLQSHLWRSLDGLVWSDALKIGDKGYWLWRLTEYQNALYGVGYRAGPDGDTRLYKSDDGVQFETWLMVFNNQGYVNESAIVFDQDNGFCLLRRDPVWGPEYVGLLGCSQAPFIDWQWQELDKRIGGPVMLMYQSRLLAVVRLYDEQVRTALVEIHPDTGVVQELLTLPSKGDTSYAGVVIDGNELWVSYYSSHEIANAQLDAQNVQNESSISTQAKTMIYFAKIQLVGEF”, “not soluble”.
As for “MESGFTACISIITGVKSIYRWKNNIEENQEIMCFFKTAEDTSSHSLYRGVITSS”, the entry is “not soluble”.
For “MLSRPSGTVAKTEFQLRRNVLPALKRFVSAAAKSAGVQEKTTVLENGLRVSSVELNGATSSIVLAFRAGSRYQPANKQGLTHLIRNSVGRDAPNFPGLALVWNTAQNGGNLTAVSNRDVLAIEVNVVRDQSAVVLSLLGQLGNNAFKPWDVEDVKHDTLPADATYLTGTTIAFEQLHQAAFRNGGLGLSNYSVNNVSAKDLSAFAKERLVAGEAVLVGVNVDHDTLVQAGSTQFPLAQNQPAKATPAKYFGGEARKDGRGNRSYVAIAGEGSAITSVKDVAVQAVVAQILLNAAQKVTSEAISVNVNYQDSGLVGVQFAACNTQITQVTKSIASAIKSAKADGLDNAKNTAAVQVLSDAQHASEVALEKATQVLAGVEVSPREFADAIRAVTAQDVTQALSRVNGKLSLAAYGSTSLVPYLDEL” the value was “not soluble”; for “MGSSHHHHHHGKTIFVIVPTNEEQVAFLEALAKQDELNFDWQNPPTEPGQPVVILIPSDMVEWFLEMLKAKGIPFTVYVEEGGSENLYFQGGGGGGCCSLLFFVYIAFSLIHTLHHLFLFSECNISADERMDVPSEDYDVSIMIKAIHEVQDVLTSRQFATFSEVDTEIGKTLKRYEAFGDGFERFHVNLTKDALQSNDLQKSLKDMDKRCQDRLRDCASSQKDQINDILPFIRNTSSILVHGSGNLLALTIACSIQEHEGVRFYICEGRPARKGYPHGSGEQLLEKVLATPEGMRLKDKLHKYCTIVPDSGVSSVMNSVDFVIMGAYCVTEHGGLVHSTGSLQIAIVAAFRNVPCYVLCETFKFAHIFPLSTDDLKQPENGAGEVVPLVEFVPPSMITLIFSEQGIMPPSAVADEMFRFHTAPSAPGKRR”, “not soluble”; for “MSTPTVITLNDGREIQATDKPSYDEDSGFYEFEQLDGKRTRLNKDQIRTVKELLEHHHHHH”, “not soluble”.
Turning to “MSTMGNEASYPAEMCSHFDNDEIKRLGRRFKKLDLDKSGSLSVEEFMSLPELRHNPLVRRVIDVFDTDGDGEVDFKEFILGTSQFSVKGDEEQKLRFAFSIYDMDKDGYISNGELFQVLKMMVGNNLTDWQLQQLVDKTIIILDKDGDGKISFEEFSAVVRDLEIHKKLVLIV”, the “soluble on expression in E. coli” value was “soluble”.
With “EDRVGERRIMIDKKEAIEHFRRHPGDGMIKLDLLTTAYNDINLIPPIYQPFLQDKQYFLGEVGQEPNTRMIYMSTFNQNGEEHPIILISLIDEIEITSTE”, the “soluble on expression in E. coli” value is on record as “not soluble”.
For “ASGSSFASTRKLLNRHSLHTVCRSAMCPNLHECWSKGTATFLLLGNVCTRSCRFCAVGTECRPAMPDPEEPSKIAEAVKTMKLRHAVLTSVNRDDLADGGATHWVETIRAIREVNPGVSLECLIPDFSGNEQSLDLVMQELPEVLNHNIETVPSRYAAVRPQALYERSLAVIERAKRQFRLATKSGMMVGMGETEEELEASLHDLRGHGCDMVTIGQYLQPTAAHLPVSRYVTPEEFERYREIALDAGFRHVQSGPFVRSSYHAEAFEPVEK” the value was “not soluble”.
For “MSLGRKIKKETMIFPRYHQLRAVRELEDAARTEGPGHNYLVEHSAGSGKSNTIGWLAHRLASLHNESDHKVFDSVIVITDRRVLDRQLQDTIYQFEHRQGVVQKIDEDSRQLAEALTNSVPIIISTLQKFPFVARQLARMAEERREGADGILPTRRCAVIIDEAHSSQSGETATDLKEVLGGHVLREEAARYAVDEGVDNLDELYRSMAKRGRQTNLSFFAFTATPKHKTLAVFGRDEAGKAGQPFHRYTMSQAIEEGFIMDVLKNYTTYATYYKLVKASEDDPNVERKQAAKALARFMRLHPYNIAQKTEVMVEHFNAVTRHKVGGKAKAMVVTGSRLEAVRYKLAFDAYIREKGYSWIKTLVAFSGEVVDDELPGKTWTEVGMNGGIKEGVLPEKFDSSEYQVLLVAEKYQTGYDQPLLHTMYVDKRLAGIQAVQTLSRLNRMHPLKEDTFVLDFVNDRQEIKEAFKQYHEGAEMGEEADPNQMYAIKAELDASGIYLLEEMQRFIGIYFKPKQRQSPADHQAMNAALDPAVDRFRAVQEEDEEQAELWRGKLSAFRNLYAFLSQVAPYQDSDLERLYTFLRFLSPKLPKRTTGQRYSFDDEVRLEYYRLQKISEGSISLRDGKAELLDGPGEVGSGARHDEDVPLSSLIDVINERFGTDFTDADQLFFDQIIEAAMEDGSLLEAAAVNPEEKFALLFAGLLETLFIERMEQNEDIFARFMNERDFQSLVSKWISGKVYARLREGHHHHHH” the value was “not soluble”.
As for “MIDWPLAELLPHAGDMILIDQVLAFDEEQIRTRLEVRPGGLFNRPDGSLPAWVGVELMAQSVAAYAGCRARQQGLPVELGFLLGTRKFECNVEHFPLGSTLEIHALRSLEDDNGMGVFECHLSGPGITASARLNVFRPPQAADYLHETPLEHHHHHH”, the entry is “not soluble”.
